The values that follow come from patent publication US20110195896A1 (CASE WESTERN RESERVE UNIVERSITY, published 2011).

Changes are numbered by the printed parent chain. Ends that are not written are not given here.

The target of experiment [1] is T1, Type I IGF receptor (UniProt P08069 31-1367).
T1 construct: also called IGF-I RECEPTOR; Insulin-like Growth Factor Receptor
The experiment is described as follows: competitive displacement of labelled tracer from IGFR. As for the experimental part: Receptor-Binding Assays. […] This assay employs the purified epitope-tagged receptor (IR-A, IR-B, or IGFR) using a microtiter-plate antibody-capture assay as known in the art. The epitope tag consists of three tandem repeats of the FLAG epitope. Microtiter strip plates (Nunc Maxisorb) were incubated overnight at 4° C. with anti-FLAG IgG (100 μl/well of […] in phosphate-buffered saline). Binding data were analyzed by a single-site heterologous competition binding model. A corresponding microtiter plate antibody assay using the epitope-tagged IGF Type I receptor was employed to assess cross-binding of analogues to this homologous receptor.

Experiment [2] has as its target T1, Type I IGF receptor. Briefly: competitive displacement of 125I-IGF-1 from IGFR. A general note: Loss of bound radioactivity is the signal in a displacement assay; it reports binding, not function.

B1: [His^A8, Asp^B28, Pro^B29]-SCI (57-mer single-chain insulin analogue, linker GGGPRR) (ligand)
chain: FVNQHLCGSHLVEALYLVCGERGFFYTDPTGGGPRRGIVEQCCHSICSLYQLENYCN
modifications: ends and bridges not checked; cysteine pairing not given here
notes: Made by total chemical synthesis and native ligation
As for B1, the Kd in experiment [1] and in experiment [2] was 27.6 nM throughout.

B2: His^A8, Asp^B10, Asp^B28, Pro^B29 SCI (ligand)
chain: B1 chain with H10D
notes: also called SCI (His^A8, Asp^B10, Asp^B28, and Pro^B29); SCI containing the substitution Asp^B10
In turn, B2 showed a Kd in experiment [1] of 9.89 nM.

As a reminder, the Kd is the concentration at which binding is half-saturated.
